Article doi:10.1101/2020.06.08.118984 (bioRxiv, 2020)

Target: the molecule itself
Assay: crystal structure

B1: mouse TBPL2 core domain (TBPL2^C) (domain or fragment)
chain: SGIVPQLQNVVSTANLACKLDLRKIALNAKNTEYNPKRFAAVIMRIREPRTTALIFSSGKVVCTGAKSEEESRLAARKYARVVQKLGFPVRFFNFKIQNMVGSCDVKFPIRLEILALTHRQFSSSYEPELFPGLIYKMVKPQVVLLIFASGKVVLTGAKERSEIYEAFENMYPILESFKK
stoichiometry N: 2
